From the RNAGym collection of RNA variant scans (doi:10.7554/elife.90254)

B1: OR4K15 (parent)
chain: GUUAACGGUCAUAGGCCAUGGAAACUAGGAGCACCAUUUCGCUGCCAGUGAAGAAAUGAACAAAGAAAAUCUGGGCCAGGCAGGCAUCAAAAGAAAUAGUCUUGCGCUCAACCAGAAAGUCUGUAAUCAUUUUAAGGGUA

Variants of: B1
Assay: self-cleavage, relative activity (ratio to wild type); higher = more cleavage; in vitro, sequencing; the parent is a self-cleaving ribozyme

Variant | self-cleavage
U100C A135U | 2.37
U100C A135G | 1.74
U102C C113U | 0.33
U102C C113A | 0.28
U103C G104U | 0.03
A98U G104A | 0.12
U102C G106A | 0.02
A98G A135C | 0.44
U103G G137U | 0.05
U103G G137A | 0.1
U103A A116U | 0.2
U103C A110G | 0.15
U103C A110U | 0.79
U103C A129G | 0.56
U100C A117U | 1.45
U100C A117G | 2.56
U102C C109A | 0.3
U103A G138A | 0.68
U102A G138A | 0.55
U100C A126U | 0.32
A98U A116U | 0.97
U100A U130C | 0.09
U100C U130A | 2.16
U102C A126C | 1.47

Variant | self-cleavage
U102C C105U | 1.01
U103C A126G | 0.35
A98G C109A | 0.03
U100A A114U | 0.01
G99A U103C | 0.07
U102A A118G | 0.84
U102A C107U | 0.01
U102C A118U | 1.08
U102C A118G | 1.31
G104A A125G | 0.01
C101U C105A | 0.01
U103A U120C | 0.34
U102A A110G | 0.1
A98U U120C | 1.65
U102C G138A | 1.82
U102C A117G | 2.72
U102C A117U | 0.83
U100A A111G | 0.02
U102G U133A | 1.45
G104U | 0.02
G104C | 0.02
G104A | 0.04
C101A U124C | 0.08
U100C U124A | 2.17

Variant | self-cleavage
U103C A134U | 0.78
U103C A134G | 1.49
U102A U120A | 1.01
U102A U120C | 0.37
U100C U108A | 0.02
U102C U103C | 0.21
C105U A111U | 0.01
A98G A114G | 0.15
U103C A114U | 0.04
C105G G136U | 0.02
U102C U132A | 2.37
U100A U108C | 0.03
U103C A118G | 0.22
U102A A126G | 0.43
U102G A117G | 0.37
A98U U100C | 2.47
U100A U139A | 1.29
G99U U103C | 0.15
C101A A117G | 0.13
C105A U108C | 0.01
U102C U124A | 0.97
U102A U103C | 0.12
U103C A116U | 0.23
U103C A116G | 0.5

Variant | self-cleavage
A98U U127C | 1.98
U102C C128A | 2.11
U102C C128U | 1.62
U102C A129U | 1.23
A98G U130C | 0.41
C101A A118G | 0.08
U102C A135U | 2.46
U102C A135C | 1.02
U103C G138C | 0.95
U102A A125G | 0.42
C105A C112U | 0
U103C U122A | 1.14
C105U A135U | 0.28
U103C U120A | 1.55
U103A U131C | 0.45
U100A C105U | 0.03
U103A A114U | 0.05
G99U A117G | 0.36
A98G U127A | 0.78
U100C U132A | 1.03
U100C U132G | 2.82
U103C A111U | 0.1
C101A A114G | 0.02
A98G U100C | 2.04

Variant | self-cleavage
A98U A110G | 0.17
A98U A110U | 1.67
U100A A140U | 0.83
U100G U103C | 0.09
U103C A140G | 1.38
U102C C107G | 0.01
U102G G106C | 0.01
U100C U103C | 2.89
C101U U108C | 0.01
U100A A117G | 1.14
U100A U122C | 0.28
A98U A118U | 1.62
U100C U127G | 2.43
U102C U139A | 2.11
U102A A116G | 0.18
U103C U108C | 0.01
A98U A126G | 1.86
G99A G136A | 0.91
U103C U131C | 0.49
U100C G136A | 2.45
U102A A117G | 1.12
A98U A117G | 1.63
U103A A110G | 0.2
U103A A110U | 0.62

Variant | self-cleavage
A98G U102C | 2.44
A98G U120C | 0.23
A98U A114U | 0.12
A98U A114G | 0.5
U102C U130C | 1.64
U103C G106A | 0.02
U102C A111U | 0.04
U102C U122C | 1.24
U102C U122A | 1.51
U100A A118G | 0.47
U102C A110U | 1.94
U102A A135G | 1.02
U103A A118G | 0.41
U102C A125G | 1.5
G104U A117G | 0.02
U102G U120A | 0.77
A98G A125U | 0.84
A98U U102C | 2.78
U103C G136U | 1.12
C101G U120C | 0.03
A98G A117U | 0.3
A98U U131A | 0.49
G104A A110U | 0.02
U103C A135G | 0.95

Variant | self-cleavage
A98U | 2.22
G104A A140G | 0.09
U103C U132A | 1.03
A98G U131C | 0.49
U102G A116G | 0.62
A98U A135G | 2.4
U100A G123A | 0.47
U100C A129G | 2.22
U100C A129C | 1.8
U103C A125G | 0.69
A98G G138U | 0.6
U102A U108C | 0
U100C A111C | 0.01
U100C A111U | 0.18
G99A A134G | 0.6
U102C U127C | 1.56
A98G A110U | 0.31
U102C A140G | 2.39
G99U | 0.51
G99A | 0.56
U102A U122C | 0.55
A98G U132A | 0.41
U100C U102A | 2.36
